Assay results from paper PMC5566574 (Frontiers in Immunology, 2017).

Legend:
[1] = target: T1, p40 subunit of human interleukin 23 (human, UniProt P29460, saccharidic chain of the complex type at Asn 200 (GlcNAc2-Man3 core seen in the crystal)); experiment: crystal structure; hIL23 with nanobodies 37D5, 124C4 and 22E11; sitting drop, 277 K, 16.5% PEG 20 K, 0.1 M MES pH 5.9; two complexes per asymmetric unit; PDB 4GRW; conditions: both partners purified
T1 construct: p40 subunit shared by IL12 and IL23, human; never handled apart from p19; also called IL12-shared p40 subunit; source: bought as part of hIL23 (R&D Systems Inc. or eBioscience)

[2] = target: T2, cynomolgus monkey (cyno) IL23 (Macaca fascicularis (cynomolgus monkey), UniProt H6WS56;H6WS55); experiment: SPR; species cross-reactivity of the monovalent nanobodies on cyno IL23 and mouse IL23; off-rates compared; set-up not described
T2 construct: interleukin 23 subunit p19, cynomolgus monkey; construct not described; p40 subunit, cynomolgus monkey; source: produced at Ablynx, Ghent/Zwijnaarde, Belgium

[3] = target: T3, mouse (m) IL23 (Mus musculus (Mouse)., UniProt Q9EQ14;P43432); experiment: as above
T3 construct: interleukin 23 subunit p19, mouse; p40 subunit, mouse; source: bought: R&D Systems Inc
T3 sequence (Q9EQ14 22-196, chain 1 of 2): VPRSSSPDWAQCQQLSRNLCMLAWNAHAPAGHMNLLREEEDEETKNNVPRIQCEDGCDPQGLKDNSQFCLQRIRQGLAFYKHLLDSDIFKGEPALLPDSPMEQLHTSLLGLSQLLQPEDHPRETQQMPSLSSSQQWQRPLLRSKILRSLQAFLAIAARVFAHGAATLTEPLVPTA
T3 sequence (P43432 23-335, chain 2 of 2): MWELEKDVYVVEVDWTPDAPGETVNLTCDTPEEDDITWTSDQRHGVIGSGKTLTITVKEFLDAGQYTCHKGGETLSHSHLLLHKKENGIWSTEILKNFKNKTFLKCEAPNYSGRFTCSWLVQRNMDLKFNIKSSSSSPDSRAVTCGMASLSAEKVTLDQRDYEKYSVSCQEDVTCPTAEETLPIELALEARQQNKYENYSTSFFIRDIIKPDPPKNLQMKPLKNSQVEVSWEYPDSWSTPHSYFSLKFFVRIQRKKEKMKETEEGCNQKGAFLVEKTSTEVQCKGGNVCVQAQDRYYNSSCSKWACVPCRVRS

[4] = target: T4, biotinylated human interleukin 23 (human, UniProt Q9NPF7;P29460, biotin (Sulfo-NHS-LC-Biotin; sites not stated) | biotin (Sulfo-NHS-LC-Biotin; sites not stated)); experiment: AlphaScreen or HTRF; serial dilutions of purified nanobody (250 nM to 1 pM) preincubated with 500 pM biotinylated hIL23 or 3 nM biotinylated hIL12; IL23R or IL12Rβ1 on acceptor beads via an antihuman Fc monoclonal antibody; streptavidin donor beads; 1 h at room temperature; conditions: both partners purified
T4 construct: interleukin 23 subunit p19, human; p40 subunit shared by IL12 and IL23, human; also called biotinylated hIL23; source: bought: eBioscience; biotinylated using Sulfo-NHS-LC-Biotin (Pierce)

[5] = target: T5, human interleukin 23 (Homo sapiens, UniProt Q9NPF7;P29460, saccharidic chain of the complex type at Asn 200 (GlcNAc2-Man3 core seen in the crystal)); experiment: cell-based or functional assay
[6] = target: T5, human interleukin 23; experiment: SPR; Biacore T100; hIL23 covalently bound to a CM5 chip via amine coupling; purified nanobodies 1 to 300 nM injected for 4 min at 45 µl/min; conditions: both partners purified
[7] = target: human interleukin 12 (human, UniProt P29459;P29460); experiment: cell-based or functional assay
[8] = target: T6, biotinylated human interleukin 12 (human, UniProt P29459;P29460, biotin (Sulfo-NHS-LC-Biotin; sites not stated) | biotin (Sulfo-NHS-LC-Biotin; sites not stated)); experiment: AlphaScreen or HTRF; serial dilutions of purified nanobody (250 nM to 1 pM) preincubated with 500 pM biotinylated hIL23 or 3 nM biotinylated hIL12; IL23R or IL12Rβ1 on acceptor beads via an antihuman Fc monoclonal antibody; streptavidin donor beads; 1 h at room temperature; conditions: both partners purified
T6 construct: p35 subunit of IL12, human; p40 subunit shared by IL12 and IL23, human; also called biotinylated hIL12; source: bought: R&D Systems Inc; biotinylated using Sulfo-NHS-LC-Biotin (Pierce)

[9] = target: T7, biotinylated human interleukin 23 (human, UniProt Q9NPF7 20-189; P29460 23-328, biotin (Sulfo-NHS-LC-Biotin; sites not stated) | biotin (Sulfo-NHS-LC-Biotin; sites not stated)); experiment: as above; conditions: both partners purified
T7 construct: interleukin 23 subunit p19, human; p40 subunit shared by IL12 and IL23, human; also called biotinylated hIL23; source: bought: eBioscience; biotinylated using Sulfo-NHS-LC-Biotin (Pierce)
T7 sequence (looked up) 1: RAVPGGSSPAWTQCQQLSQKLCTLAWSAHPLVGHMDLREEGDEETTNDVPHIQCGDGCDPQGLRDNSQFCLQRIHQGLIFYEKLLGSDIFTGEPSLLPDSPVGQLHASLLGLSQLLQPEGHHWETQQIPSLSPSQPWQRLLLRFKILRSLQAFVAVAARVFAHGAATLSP
T7 sequence (looked up) 2: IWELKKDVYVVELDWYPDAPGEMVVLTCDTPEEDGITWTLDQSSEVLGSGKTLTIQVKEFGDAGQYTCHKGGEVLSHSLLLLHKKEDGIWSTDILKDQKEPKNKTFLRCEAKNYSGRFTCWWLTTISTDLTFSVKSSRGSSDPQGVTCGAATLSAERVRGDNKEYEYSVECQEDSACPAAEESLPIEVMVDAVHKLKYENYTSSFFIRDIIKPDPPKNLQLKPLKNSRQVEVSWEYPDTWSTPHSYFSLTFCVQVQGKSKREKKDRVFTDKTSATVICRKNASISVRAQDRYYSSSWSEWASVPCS

[10] = target: T8, IL12Rβ-Fc chimera (human, UniProt P42701 24-545); experiment: as above; conditions: both partners purified
T8 construct: interleukin 12 receptor subunit beta 1, human; The materials name it 'IL12Rβ-Fc chimera'; the assay and results name IL12Rβ1 / hIL12Rβ1; also called IL12Rβ1; hIL12Rβ1; source: bought: R&D Systems Inc

[11] = target: T9, p40 subunit of human interleukin 23 (human, UniProt P29460 23-328, saccharidic chain of the complex type at Asn 200 (GlcNAc2-Man3 core seen in the crystal)); experiment: crystal structure; hIL23 with nanobodies 37D5, 124C4 and 22E11; sitting drop, 277 K, 16.5% PEG 20 K, 0.1 M MES pH 5.9; two complexes per asymmetric unit; PDB 4GRW; conditions: both partners purified
T9 construct: p40 subunit shared by IL12 and IL23, human; never handled apart from p19; also called IL12-shared p40 subunit; source: bought as part of hIL23 (R&D Systems Inc. or eBioscience)
T9 sequence (looked up): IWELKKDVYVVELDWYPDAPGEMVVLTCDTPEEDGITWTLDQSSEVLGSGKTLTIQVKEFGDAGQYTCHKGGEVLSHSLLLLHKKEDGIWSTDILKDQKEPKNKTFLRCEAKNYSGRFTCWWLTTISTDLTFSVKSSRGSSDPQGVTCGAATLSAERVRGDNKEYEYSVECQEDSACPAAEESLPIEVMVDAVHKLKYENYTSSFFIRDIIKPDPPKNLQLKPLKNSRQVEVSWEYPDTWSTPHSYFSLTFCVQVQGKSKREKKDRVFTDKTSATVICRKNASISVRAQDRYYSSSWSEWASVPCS

B1: nanobody 37D5 (VHH)
VHH: EVQLVESGGGLVQPGGSLRLSCAASGFTLDYLAIGWFRQAPGKEREGVSCVSSSGQYTYYADSVKGRFTISRDNAESTVYLQMNSLKPEDTAVYYCATDPECYRVRGYYNGEYDYWGQGTQVTVSS
notes: nanobody 37D5 (llama VHH); both add C-terminal c-myc and hexa-histidine tags; also called p19+ nanobody 37D5; source: E. coli TG1, periplasmic extract (screening); purified (Ni-NTA; Superdex75 for crystallization); not shown: c-myc, C-terminal, kept
[1]
  binding result: binds
[2]
  binding result: binds
[3]
  binding result: no binding
[4]
  IC50: 110 pM
[5]
  IC50 of inhibition of mIL22 secretion by mouse splenocytes stimulated with 19 pM hIL23; blocks IL23/IL23R: 19 pM
[6]
  Kd: 600 pM
  koff: 0.00018 s⁻¹
  kon: 320000 M⁻¹ s⁻¹

B2: nanobody 22E11 (VHH)
VHH: EVQLVESGGGLVQAGGSLRLSCAASGRTFSWSAVGWFRQAPGKEREFVAAIRWSGGSPYYADSVKDRFTISRDNAKNTVYLQMNSLRPEDTAVYLCGETSLFPTSRGSHYDTWGQGTQVTVSS
notes: nanobody 22E11 (llama VHH); both add C-terminal c-myc and hexa-histidine tags; also called p40+ nanobody 22E11; source: E. coli TG1, periplasmic extract (screening); purified (Ni-NTA; Superdex75 for crystallization); not shown: c-myc, C-terminal, kept
[7]
  IC50 of block of hIL12-dependent proliferation of PHA blasts (4 pM hIL12 for stimulation; data not shown): 95 pM
[1]
  binding result: binds
[2]
  binding result: binds
[3]
  binding result: no binding
[8]
  IC50: 1300 pM
[5]
  IC50 of inhibition of mIL22 secretion by mouse splenocytes stimulated with 19 pM hIL23: 186 pM
[6]
  koff: 0.00023 s⁻¹

B3: nanobody 124C4 (VHH)
VHH: EVQLVESGGGLVQPGGSLRLSCAASGFTLDDYAIAWFRQAPGKEREGVSGIDSGDGSAYYADSVKGRFTISSDNAKNTVYLQMNSLRPEDTAVYYCARVRTGWGLNAPDYAMDYWGKGTLVTVSS
notes: nanobody 124C4 (llama VHH); both add C-terminal c-myc and hexa-histidine tags; also called p19− nanobody 124C4; source: E. coli TG1, periplasmic extract (screening); purified (Ni-NTA; Superdex75 for crystallization); not shown: c-myc, C-terminal, kept
[1]
  binding result: binds
[2]
  binding result: binds
[3]
  binding result: binds
[6]
  Kd: 3300 pM
  koff: 0.00033 s⁻¹
  kon: 100000 M⁻¹ s⁻¹

B4: hIL23 receptor (R)-fragment crystallizable region (Fc) (Fc fusion, human, UniProt Q5VWK5 24-355, looked up)
chain: GITNINCSGHIWVEPATIFKMGMNISIYCQAAIKNCQPRKLHFYKNGIKERFQITRINKTTARLWYKNFLEPHASMYCTAECPKHFQETLICGKDISSGYPPDIPDEVTCVIYEYSGNMTCTWNAGKLTYIDTKYVVHVKSLETEEEQQYLTSSYINISTDSLQGGKKYLVWVQAANALGMEESKQLQIHLDDIVIPSAAVISRAETINATVPKTIIYWDSQTTIEKVSCEMRYKATTNQTWNVKEFDTNFTYVQQSEFYLEPNIKYVFQVRCQETGKRYWQPWSSLFFHKTPETVPQVTSKAFQHDTWNSGLTVASISTGHLTSDNRGDIG
notes: interleukin 23 receptor, human; also called hIL23R-Fc; source: bought: R&D Systems Inc
[9]
  binding result: binds

B5: biotinylated human interleukin 12 (complex)
chain 1: RNLPVATPDPGMFPCLHHSQNLLRAVSNMLQKARQTLEFYPCTSEEIDHEDITKDKTSTVEACLPLELTKNESCLNSRETSFITNGSCLASRKTSFMMALCLSSIYEDLKMYQVEFKTMNAKLLMDPKRQIFLDQNMLAVIDELMQALNFNSETVPQKSSLEEPDFYKTKIKLCILLHAFRIRAVTIDRVMSYLNAS
chain 2: IWELKKDVYVVELDWYPDAPGEMVVLTCDTPEEDGITWTLDQSSEVLGSGKTLTIQVKEFGDAGQYTCHKGGEVLSHSLLLLHKKEDGIWSTDILKDQKEPKNKTFLRCEAKNYSGRFTCWWLTTISTDLTFSVKSSRGSSDPQGVTCGAATLSAERVRGDNKEYEYSVECQEDSACPAAEESLPIEVMVDAVHKLKYENYTSSFFIRDIIKPDPPKNLQLKPLKNSRQVEVSWEYPDTWSTPHSYFSLTFCVQVQGKSKREKKDRVFTDKTSATVICRKNASISVRAQDRYYSSSWSEWASVPCS
modifications: biotin (Sulfo-NHS-LC-Biotin; sites not stated) | biotin (Sulfo-NHS-LC-Biotin; sites not stated)
notes: p35 subunit of IL12, human; p40 subunit shared by IL12 and IL23, human; also called biotinylated hIL12; source: bought: R&D Systems Inc; biotinylated using Sulfo-NHS-LC-Biotin (Pierce)
[10]
  binding result: binds

B6: p19 subunit of human interleukin 23 (natural protein, UniProt Q9NPF7 20-189, looked up)
chain: RAVPGGSSPAWTQCQQLSQKLCTLAWSAHPLVGHMDLREEGDEETTNDVPHIQCGDGCDPQGLRDNSQFCLQRIHQGLIFYEKLLGSDIFTGEPSLLPDSPVGQLHASLLGLSQLLQPEGHHWETQQIPSLSPSQPWQRLLLRFKILRSLQAFVAVAARVFAHGAATLSP
notes: interleukin 23 subunit p19, human; never handled apart from p40; also called IL23p19; hIL23 p19 subunit; source: bought as part of hIL23 (R&D Systems Inc. or eBioscience)
[11]
  binding result: binds
